From the nanobody polyreactivity screen of Harvey et al. (2022)

Test: yeast display, Sf9 membrane polyspecificity reagent, FACS + sequencing; frameworks hold sequencing errors
Procedure, shortened: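 Sorting gates, low and high (top ~1%), were placed on anti-HA fluorescence to track expression and on streptavidin fluorescence to track reagent binding. A clone's polyreactivity label is taken from the gate it came out of. The reagent was 10% biotinylated, detergent-solubilized Sf9 membrane, applied for 1 hour at 4 °C to galactose-induced yeast display cells.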

| Sequence | polyreactivity (PSR sort gate) |
| --- | --- |
| QVQLVESGGGLVQAGGSLRLSSAASGFICATYSMGWYRQAPGKERELVASIRKSGGSTYYADSVKGRFTISRDNAKNTVYLQMNSLKPEDTAVYYCAKVYRYYPKYNYWGQGTQVTVSS | high polyreactivity |
| QVQLVESGGGLVQAGGSLRLSCAASGSTFFYYAMVWYRQAPGKERELVAAISQSSASTYYADSVKGRFTISRDNAKNTVYLQMNSLKPEDTAVYYCAAARGYWWYDYWGQGTQVTVSS | high polyreactivity |
| QVQLVESGGGLVQAGGSLRLSCAASGRTFRYYAMGWYRQAPGTERELVATITGSGGSTYYADSVKGRFTISRDNAKNSVYLQMNSLKPEDTAVYYCNARKVRYPYRWYDYWGQGTQVTVSS | high polyreactivity |
| QVQLVESGGGLVQAGGSLRLSCAASGRTFYANAMGWYRQAPGKERELVATISSGGRTNYADSVKGRFTISRDNAKNTVYFQMNSLKPEDTAVYYCAKRGPYNRWYGRYDYWGQGTQVTVSS | low polyreactivity |
| QVQLVESGGGLVQAGGSLRLSCAASGFTLIHYAMGWYRQAPGKERELVAGITTSGGSTYYADSVKGRFTISRDNAKNTVYLQMNSLKPEDTAVYYCAASSNTRGDYWGQGTQVTVSS | high polyreactivity |
| QVQLHESGSGLVQAGGSLRLSCAASGAIFPANLMGWYRQAPGKERELVAGISYGSITYCADSVKGRFNISRDNAKHTVYLQMNSLKPEDTAVYYCEVWRPGGDEYYYWGQGTQVTVSS | low polyreactivity |
| QVHLVQSGGGLVQAGGSLRISSAASGSTFSPYDMGRYRQAPGKEREMVAGITDGAITTYADSVKGSFTISRDNANNTVYLQMNSLKPEDTEVYYCAAFLWAKYHPGYYYWGQGTQETVSS | low polyreactivity |
| QVQLVESGGGLVQAGGSLRLSCAASGITFYRYAMGWYRQAPGKERELVAAISTSGGTTYYADSVKERFTISRDNAKNTVYLQMNSLKPEDTAVYYCAAQYLRWSRMDYWGQGTQVTVSS | high polyreactivity |
| QVQLVESGGGLVQAGGSLRLSCAASGSIAMGWYRQAPGKERELVATISSSGGSTYYADSVKGRFTISRDNAKNTVYLQMNSLKPEDTAVYYCNTQAVYGGGEGGYDYWGQGTQVTVSS | low polyreactivity |
| QDQLVESGGGLVQAGGSLRLSCAASGSTFSWYTMGWYRQAPGKERELVAAISKRGGSTYYADSVKGRFTISRDNAKNTVYLQMNSLKPEDTAVYYCNKDDERGKLYYWGQGTQVTVSS | high polyreactivity |
| QVQLVESWGGLVQAGGSLRLSCAASGRTFRLYAMGWYRQAPGKERELVATNTSTGSTNYADSVKGRFTISRDNAKNTVFLQMNSLKPDDTAVYYCNAAWYNPKSWTQYPPFDYWGQGTQVTVSS | high polyreactivity |
| QVHLVESGGGLVQAGGSLRLSCAASGRTFKGYAMGWYRQAPGKERELVASINWSDGNTYYADSVKGRFTISRDNAKNTVYLQMNSLKPEDTAVYYCNVRRGDRFVRHDYWGQGTQVTVSS | low polyreactivity |
| QVQLVESGGGLVQAGGSLRLSCAASGSTFNKYAMGWYRQAPGKERELVAAISSSGGSTYYADSVKGRFTISRDNAKNTVYLQMNSLKPEDTAVYYCNARRTYSVPARRYYYWGQGTQVTVSS | high polyreactivity |
| QVQLVESGGRVDQAGGSLRLRCAASGRTFPVYAMGWYRQAPGKERELVAAITRCDDSTYYADSVKGRFTISRDNAKNTVYFEMNSLKPEDTAVYYCARSSRESYEYDYWGQGTQVTVSS | low polyreactivity |
| QVQLVESGGGLVQAGGSLRLSCAASGSTFSSYAMGWYRQAPGKEREIVADINGSGGRTYYADSVKGRFTISRDNAKNTVYLQMNSLKPEDTAVYYCIAYYLQGEYYTEDYWGQGTQVTVSS | low polyreactivity |
| QVQLVESGGGLVQAGGSLRLSCAASGFIFRSYVMGWYRQSPGKERELVAAISKSGGSTYYADSVKGRFTISRDNAKTTVYLQMNSLKPEDTAVYYCAAGTTRTGYRTRYDYWGQGTQVTVSS | high polyreactivity |
| QVQLVESGGGLVQAGGSLRLSCAASGFIFKSYAMGWYRQAPGKERELVAAITSGGSTYYADSVKGRFTISRDNAKNTVYLQMNSLKPEDTAVYYCATRYRFGWGLSWYDYWGQGTQVTVSS | high polyreactivity |
| QVQLVESGAGIVQAGGSLRLSCAASGNSYGYAMGWYRQAPGKERELVAAITSGASDTYYADSVKGRFTISRDNAKKTVYLQMNSLKPEDTAVYYCAAVDYTNRYDPYDYWGQGTQVTVSS | low polyreactivity |
| QVQLVESGGGLVQAGGSLRLSCAASGLTSGYYAMGWYRQAPGKEREFVAAITWRSGSTYYADSVKGRFTISRDNAKNTVYLQMNSLKPEDTAVYYCAAVSVIYHGHNRSTYEYWGQGTQVTVSS | high polyreactivity |
| QVQLVESGGGLVQAGGSLRLSCAASGSIVNYNDMGCYRQAPGKERELVAAIDSSGTSTYYADSVKGRFTISRDNAKNTVYLQMNSLKPEDTAVYYCNADSSLGFGYWGQGTQVTVSS | low polyreactivity |
| QVQVVESGGGLVQAGGSLRLSCAASGSTFSRNAMGWYRQAPGKERELVAAINYSGGITYYADSVKGRFTISRDNAKNTVYLQMNSQKPEDTAVYYCAAVATNVPTHGRPSRRAYDYWGQGTQVTVSS | low polyreactivity |
| QVQLVESGGGLVQAGGSLRLICAASGFTIWFNAMGWYRQAPWKERDLVATIRGSGGTTYYAYSVKGRFTISRDNAKNTVYLQMNSLKPEDTAVYYCAAEGSFRKFDYCGQGTQVTVSS | low polyreactivity |

| Sequence | polyreactivity (PSR sort gate) |
| --- | --- |
| QVQLVESGGGLVQAGGSLRVSCAASGFIFHYYAMGWYRQAPGKERELVAAITYSGGSTYYADSVKGRFTISRDNAKNTVYLQMNSMKPVDTAVYYCNADSVLDLYWNMDYWGQVTQVTVSS | low polyreactivity |
| QVQLVESGGGLVQAGGSLRLSCAASGRTGVNAIGWYRQAPGKERELVAAINNGDSTYYADSVKGRFTISRDNAKNTVYLQMNSLKPEDTAVYYCAAGLDEGDYWQESDYWGQGTQVTVSS | low polyreactivity |
| QVQLVESGGGLVQAGGSLRLSCAASGSIFQPYAMGWYRQAPGKERELVAAINGRGGSTHYADSVKGRFTISRDNAKNTVYLQMNSLKPEDTAVYYCAATWAYPGSGYVYFYGNDYWGQGTQVTVSS | high polyreactivity |
| QVQLVESGGGLVQAGGSLRLSCAASGITFIIYVMGWYRQAPGKERELVAAISSTGSTYYADSVKGRFTISRDNAKNTVYLQMNSLKPEDTAVYYCAARGRRSSNGFYYWGQGTQVTVSS | high polyreactivity |
| QVQLQESGVGLVQAYGSLRLSCAAIGSIFGYYYMGSYRQAPGKDRELVATINICGITNYADSVKGRFTISRDNAKYTVYLQMKSLKRDDTAVFYCAADEYAQRDLGYWGQGTQVTVSS | low polyreactivity |
| QDQHVESGRGLVQAGGSLRLSCAASGLIFPRNAMGWYRQAPGKERELVAVISRSGTSTYYADSVKGRFTISRDNAKNTVYLQMNSLKPEDTAVYYCAAYSRRGSSLRGRYGYWGQGTQVTVSS | high polyreactivity |
| QVQLVESGGGLVQAGGSLRLSCGASGSIFYGYAMGWYRQAPGKERELVASITYSGGSTYYADSVKGRFTISRDNAKNTVYLQMNSLKPEDTTVYYCAVIGYHYSAISPASQTRQGYDYWGQGTQVTVSS | low polyreactivity |
| QVQLVESGGGLVQAGGSLRLSCAASGFTFRYYAMGWYRPAPGKERELVATISRGGSTNYADSVKGRFTISRDNAKNTVYLQMNSLKPEDTAVYYCNARIYKGYNYWGQGTQVTVSS | high polyreactivity |
| QVQLVESGGGLVQAGGSLRLSCAASGSIFRFYPLGWYRQSPGKERELVAGITWSGASTYYADSVKGRFTISRDNAKNTVYLQMNSLKPEDTAVYYCAKLYRLDGFYYWGQGTQVTVSS | high polyreactivity |
| QVQLVESGGGLVQAGGSLRLSCAASGSTFARYAMGWYRQAPGKERELVAAISRRGGSTYYADSVKGRFTISRDNAKNTVYLQMNSLKPEDTAVYYCAARYGIISSFEYDYWGQGTQVTVSS | high polyreactivity |
| QVQLVESGGGLVQAGGSLRLSCADSGSIFVAYAMRWYRPAPGKERELVAAISSSGGTTYYADSVKGRFTISRDNAKNTVYLQMNSLKPEDTAVYYSAARDYKYYYWGQGTQVTVSS | high polyreactivity |
| QVQLVESAGGLVQAGGSLRLSCAASGLTFTTYAMGWYRQAPGKERELVAAISRRGSRTYYADSVKGRFTISRDNAKNTVYLQMNSLKPEDTAVYYCNALTGSFKTYSFDYWGQGTQVTVSS | high polyreactivity |
| QVQLVESGGGLVQAGGSLRLSCAASGSIFTPYAMGWYRQAPGKERELVAAISWRGGNTYYADSVKGRFTISRDNAKNTFYLQMNSLKPEETAVYYCAAEQYSVYETGSYDYWGQGTQVTVSS | low polyreactivity |
| QVQLVESGGGLVQAGGSLRLSCAASGIIFSYYTMGWYRQAPGKERELVAAISARGGRTYYADSVKGRFTISRDNAKNTVYLQMNSLKPEDTAVYYCAASWSTEYYWGQGTQVTVSS | high polyreactivity |
| QVQLVESGGGLVQAGGSLRLSCAASGRTFYSKAMGWYRQAPGKERELVAAISSSGSSTSYADSVKGRFTMSRDNAKNTVYLQMNSLKPEDTAVYYCAARTKRRANRDYWGQGTQVTVSS | high polyreactivity |
| QVQLVESGGGLVQAGGSLRLSCAASGSTFENYVMGWDRQAPGKERELVAAISRGGGSTHYADSVKGRFTISRDNANNTVYLQMNSLKPEDTAVYYCAARYQPYVGSRSISTGIYYYWGQGTQVTVSS | low polyreactivity |
| QVQLVESGGGLVQAGGSLRLSCAASGSTCGTYAMGWYRQAPGKERELVATISLSGGSTYYADSVKGRFTISRDNAKNTVYLQMNSLKPEDTAVYYCTVKSSYSEYDYWGQGTQVTVSS | low polyreactivity |
| QVQLVESGGGLVQAGGSLRLSCAASGRIFKDNAMGWYRQAPGKERELVATIDSGGDTNYADSVKGRFTISRDNAKNTVYLQMNSLKPEDTAVYYCNRDSRVLEGDYWGQGTQVTVSS | low polyreactivity |
| QVQLVESGGGLVQAGGSLRLSCAASGSIIGSYAMGWYRQAPGKERELVAAISKSGGSTYYADSVKGRFTISRDNAKNTVYLQMNSLKPEDTAVYYCAARAYRYAYRAYDYWGQGTQVTVSS | high polyreactivity |
| QVQLVESGGGLVQAGGSLRLSCAASGFIFYDYAMGWYRQAPGKERELVAAISKRGGSTYYADSVKGRFTISRDNAKNTVYLQMNSLKPEDTAVYYCAATSYRRTGYNYWGQGTQVTVSS | high polyreactivity |
| QVQLVESGGGLVQAGGSLRLSCAASGSIFLVNAMGWYRQAPGKVRELVAAITYGGDSTYYADSVKGRFTISRDHAQNTVYLQMNSLKPEDTAVYYCAADAWVGWHDEYDYWGQGTQVTVSA | low polyreactivity |
